Test results reported in patent publication US20150064179A1 (BIOTEST, published 2015).
Residue numbers refer to the chain shown, from its start.

Experiments:
[1] = target: T1, human interleukin 10 (R&D Systems, Cat. No. 217-IL/CF) (human, UniProt P22301 19-178); experiment: antigen ELISA on plate-coated hIL-10 (2 µg/ml), COS-7 supernatants adjusted to the same antibody concentration; one concentration, not given
T1 construct: also called hIL-10; human IL-10
Source text: In brief, the expression vectors coding for the light chain and for the heavy chain were transiently cotransfected into COS-7 cells by calcium phosphate precipitation in DMEM containing 10% FCS in a 24-well format. After transfection the medium was replaced by the serum free medium CHO-S-SFM II (Invitrogen, Germany) and the supernatants of the COS-7 cells were collected 2-3 days after transfection. The antibody titer of the humanized antibodies secreted into the supernatants of transfected COS-7 cells were analyzed by a sandwich ELISA. Based on the determined antibody concentrations supernatants of all samples were adjusted to the same antibody concentrations, and all samples were used to analyze binding to human IL-10 in an antigen ELISA, whereby Maxisorb plates (Nunc, Germany) were coated with 2 μg/ml hIL-10 in PBS.

[2] = target: T1, human interleukin 10 (R&D Systems, Cat. …); experiment: SPR Biacore 2000, hIL-10 immobilised on CM-5 chip, antibody as analyte, n=6
Protocol: (§1) Surface plasmon resonance analysis was used to measure the association and dissociation rate constants for binding of the different antibodies (murine, chimeric, 3 humanized variants) towards hIL-10 using BIACORE 2000 (Biacore AB, Uppsala, Sweden). hIL-10 was immobilized on a CM-5 sensor chip according to manufacturers conditions. hIL-10 was immobilized by adding a 50 μl aliquot of 20 μg/ml at a flow rate of 5 μl/minute resulting in an immobilization density of 320RU. The immobilized hIL-10 surface was regenerated in a two step cycle by using 0.1M carbonate buffer pH 9.2 and 0.01M HCL/1M NaCl at flow rates of 50 μl/minute for one minute each. Each antibody sample was analyzed at least 4 times in antibody concentration ranges of 20-0.15 μg/ml. Calculations from the sensograms were performed by using the BIA evaluation version 3 (1999) software.

[3] = target: T2, recombinant Cynomolgus IL-10 (Cynomolgus, UniProt P79338 19-178); experiment: SPR Biacore T100, BT-063 immobilised by amine coupling, rCIL-10 as analyte, assay no 2
T2 construct: also called rCIL-10
Protocol: (§2) The affinity of the BT-63 variant 3 (hVH26/hVL7) to Cynomolgus IL-10 was analysed by additional surface plasmon resonance experiments using a Biacore T100 (Biacore AB, Uppsala, Sweden).
(§3) BT-063 was diluted in 10 mM acetate pH5.5 to 5 μg/mL and immobilized using amine coupling procedure to obtain a final level of about 1000 RU. Regeneration of the sensor chip surface was obtained injecting 10 mM Glycine-HCl pH 1.8 for 30 s. Samples were injected in different concentrations over the flow cell as well as over the reference cell. Signals obtained by the reference cell were subtracted from the signals obtained by the detector flow cell and resulting binding profiles were evaluated using a 1:1 Langmuir-binding model.

[4] = target: T2, recombinant Cynomolgus IL-10; experiment: SPR Biacore T100, BT-063 immobilised by amine coupling, rCIL-10 as analyte, assay no 3
Protocol: as §2, §3

[5] = target: T1, human interleukin 10 (R&D Systems, Cat. …); experiment: SPR Biacore 2000, hIL-10 immobilised on CM-5 chip
Protocol: as §1
However, slight differences are detectable. […] Slight differences in association and dissociation rates are also detectable.

[6] = target: T2, recombinant Cynomolgus IL-10; experiment: SPR Biacore T100, BT-063 immobilised by amine coupling, IL-10 as analyte, 1:1 Langmuir model, average
Protocol: as §2, §3

[7] = target: T1, human interleukin 10 (R&D Systems, Cat. …); experiment: SPR Biacore T100, BT-063 immobilised by amine coupling, rhIL-10 as analyte, assay no 1
[8] = target: T1, human interleukin 10 (R&D Systems, Cat. …); experiment: SPR Biacore 2000, hIL-10 immobilised on CM-5 chip, antibody as analyte, n=5
Protocol: as §1

[9] = target: T2, recombinant Cynomolgus IL-10; experiment: SPR Biacore T100, BT-063 immobilised by amine coupling, rCIL-10 as analyte, assay no 1
Protocol: as §2, §3

[10] = target: T1, human interleukin 10 (R&D Systems, Cat. …); experiment: SPR Biacore 2000, hIL-10 immobilised on CM-5 chip, antibody as analyte, n=4
Protocol: as §1

T2 sequence (P79338 19-178 limits assumed): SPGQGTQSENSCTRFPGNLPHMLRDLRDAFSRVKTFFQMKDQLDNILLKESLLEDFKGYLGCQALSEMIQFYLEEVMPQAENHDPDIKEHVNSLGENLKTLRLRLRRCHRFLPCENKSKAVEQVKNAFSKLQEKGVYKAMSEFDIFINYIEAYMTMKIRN
T1 sequence (P22301 19-178): as the sequence (P79338 19-178 limits assumed) above, with R14H, H21N, I46L, H83Q, E89A, S129N, V136I counted along it

B1: humanized antibody variant hVH13/hVL8 (antibody, V domains shown)
VH: EVQLVESGGGLVQPGGSLRLSCAASGFTFSTYGVHWVRQAPGKGLEWVSVIWRGGSTDYSAAFMSRFTISRDNSKNTVYFQMNSLRAEDTAVYYCARQAYGHYMDYWGQGTLVTVSS
VL: DVLMTQSPLSLPVTLGQPASISCRSSQNIVHSNGNTYLEWFQQRPGQSPRLLIYKVSNRFSGVPDRFSGSGSGTDFTLKISRVEAEDVGVYYCFQGSHVPWTFGGGTKVEIK
notes: human constant kappa and gamma-1; tested as COS-7 supernatant
B1: binds [1].

B2: humanized antibody variant hVH18/hVL7 (antibody, V domains shown)
VH: B1 VH with T28S, S30A, A40S, V48L, S49G, F67L, R71K, V78L, F80L
VL: B1 VL with L3V, F41Y, Q42L, G105Q
notes: as for B1
B2: binds [1].

B3: humanized antibody variant hVH28/hVL7 (antibody, V domains shown)
VH: B1 VH with T28S, S30A, A40S, V48L, S49G, F67L, R71K, L112S
VL: B1 VL with L3V, F41Y, Q42L, G105Q
notes: as for B1
B3: binds [1].

B4: humanized antibody variant hVH13/hVL7 (antibody, V domains shown)
VH: B1 VH
VL: B1 VL with L3V, F41Y, Q42L, G105Q
notes: as for B1
B4: binds [1].

B5: humanized antibody variant hVH26/hVL8 (antibody, V domains shown)
VH: EVQLVESGGGLVQPGGSLRLSCAASGFSFATYGVHWVRQSPGKGLEWLGVIWRGGSTDYSAAFMSRLTISKDNSKNTVYLQMNSLRAEDTAVYFCAKQAYGHYMDYWGQGTSVTVSS
VL: B1 VL
notes: as for B1
B5: binds [1].

B6: humanized antibody variant hVH18/hVL8 (antibody, V domains shown)
VH: B5 VH with V78L, F94Y, K97R, S112L
VL: B1 VL
notes: as for B1
B6: binds [1].

B7: BT-063-1 (hVH20/hVL7) (antibody, V domains shown)
VH: B5 VH with L80F
VL: B1 VL with L3V, F41Y, Q42L, G105Q
notes: also called BT-063 variant hVH20/hVL7
For B7, the Kd [2] was 1.22 nM, the koff [2] was 0.00103 s⁻¹ and the kon [2] was 1.21e+06 M⁻¹ s⁻¹.

B8: humanized antibody variant hVH9/hVL7 (antibody, V domains shown)
VH: B1 VH with V78L, F80L, Y94F, R97K
VL: B1 VL with L3V, F41Y, Q42L, G105Q
notes: as for B1
B8: binds [1].

B9: BT-063-3 (hVH26/hVL7) (antibody, V domains shown)
VH: B5 VH
VL: B1 VL with L3V, F41Y, Q42L, G105Q
notes: also called BT-63 variant 3; BT-063 (variant hVH26/hVL7)
With B9 the Kd [3] was 0.195 nM, the koff [3] was 0.017 s⁻¹ and the kon [3] was 8.6e+07 M⁻¹ s⁻¹. The Kd [4] was 0.191 nM, the koff [4] was 0.018 s⁻¹ and the kon [4] was 9.7e+07 M⁻¹ s⁻¹. For the same binder, the “factor of reduced affinity compared to the murine B-N10” value [5] was ~3 fold, the Kd [6] was 0.194 nM and the Kd [7] was 4.6 nM. It also gave a koff [7] of 0.003 s⁻¹, a kon [7] of 600000 M⁻¹ s⁻¹ and a Kd [8] of 2.91 nM. For the same binder, the koff [8] was 0.00266 s⁻¹, the kon [8] was 1.07e+06 M⁻¹ s⁻¹ and the Kd [9] was 0.196 nM. The koff [9] was 0.012 s⁻¹ and the kon [9] was 6.2e+07 M⁻¹ s⁻¹.

B10: humanized antibody variant hVH28/hVL8 (antibody, V domains shown)
VH: B5 VH with L80F, F94Y, K97R
VL: B1 VL
notes: as for B1
B10: binds [1].

B11: humanized antibody variant hVH1/hVL8 (antibody, V domains shown)
VH: B1 VH with V78L, F80L
VL: B1 VL
notes: as for B1
B11: binds [1].

B12: BT-063-2 (hVH20/hVL8) (antibody, V domains shown)
VH: B5 VH with L80F
VL: B1 VL
notes: also called BT-063 variant hVH20/hVL8
B12 was tested, and the “factor of reduced affinity compared to the murine B-N10” value [5] was ~3 fold, the Kd [10] was 2.81 nM and the koff [10] was 0.00164 s⁻¹. For the same binder, the kon [10] was 1.21e+06 M⁻¹ s⁻¹.

B13: humanized antibody variant hVH1/hVL7 (antibody, V domains shown)
VH: B1 VH with V78L, F80L
VL: B1 VL with L3V, F41Y, Q42L, G105Q
notes: as for B1
B13: binds [1].
